How the values were obtained:
[1] = target: mouse LHR endogenously expressed in mLTC-1 cells (mouse (endogenous in mLTC-1)) (UniProt P30730)
[2] = target: human LH/CGR (wild type, without BRET fusion) (human) (UniProt P22888)
[3] = target: hLH/CGR C-terminally fused to the BRET donor Rluc8 (human) (UniProt P22888)

UniProt P30730, sequence (P30730 27-700): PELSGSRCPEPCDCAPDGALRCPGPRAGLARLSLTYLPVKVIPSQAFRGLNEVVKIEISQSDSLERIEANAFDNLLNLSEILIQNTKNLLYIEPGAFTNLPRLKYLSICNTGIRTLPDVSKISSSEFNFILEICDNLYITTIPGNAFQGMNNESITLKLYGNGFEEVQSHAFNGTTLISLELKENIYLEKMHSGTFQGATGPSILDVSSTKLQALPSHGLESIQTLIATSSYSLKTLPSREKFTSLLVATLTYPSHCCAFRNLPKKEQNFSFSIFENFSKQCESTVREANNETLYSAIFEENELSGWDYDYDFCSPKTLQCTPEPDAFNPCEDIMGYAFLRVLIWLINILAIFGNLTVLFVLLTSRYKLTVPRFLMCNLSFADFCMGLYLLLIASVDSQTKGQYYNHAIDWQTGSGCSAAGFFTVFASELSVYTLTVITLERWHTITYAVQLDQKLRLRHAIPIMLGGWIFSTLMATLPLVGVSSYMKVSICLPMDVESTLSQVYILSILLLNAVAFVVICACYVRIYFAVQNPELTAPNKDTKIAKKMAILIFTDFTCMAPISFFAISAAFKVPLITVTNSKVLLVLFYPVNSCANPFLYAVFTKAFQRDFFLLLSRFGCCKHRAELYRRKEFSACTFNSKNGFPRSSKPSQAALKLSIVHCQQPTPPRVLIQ

Cre-reporter assay (pSOM-Luc luciferase) in mLTC-1 cells, 6 hours with increasing doses; EC50 [1] | cAMP (BRET sensor CAMYEL) in mLTC-1 cells, 30 minutes with increasing doses; EC50 [1] | cAMP (HTRF) in native mLTC-1 cells, 30 minutes with increasing doses; EC50 [1] | progesterone production by mLTC-1 cells (ELISA of supernatants), 3 hours with increasing doses; EC50 [1] | testosterone production by mLTC-1 cells (HTRF of supernatants), 3 hours with increasing doses; EC50 [1] | Cre-reporter assay (pSOM-Luc luciferase) in HEK293 cells expressing hLH/CGR, 6 hours with increasing doses; EC50 [2] | cAMP production (BRET sensor CAMYEL) in HEK293 cells expressing hLH/CGR, 30 minutes with increasing doses; EC50 [2] | β-arrestin 2 recruitment (BRET between hLH/CGR-Rluc8 and yPET-β-arrestin 2) in HEK293 cells, 30 minutes with increasing doses; EC50 [3] | Substance
318 pM | 0.459 nM | 1.98 nM | 0.306 nM | 0.0291 nM | 215 pM | 0.286 nM | 129 nM | human recombinant luteinizing hormone rhLH (Luveris) (from UniProt P01215 25-116; P01229 21-141) (ligand)
25 pM | 0.0688 nM | 0.0974 nM | 0.0197 nM | 0.00219 nM | 37.5 pM | 0.0176 nM | 10.3 nM | recombinant human chorionic gonadotropin rhCG (Ovitrelle) (from UniProt P01215 25-116; P0DN86 21-165) (ligand)

From PMC5430435
